The target of data set [1] is T1, KGF (hKGF) (Homo sapiens, UniProt P21781 P21781:32-194).
T1 sequence: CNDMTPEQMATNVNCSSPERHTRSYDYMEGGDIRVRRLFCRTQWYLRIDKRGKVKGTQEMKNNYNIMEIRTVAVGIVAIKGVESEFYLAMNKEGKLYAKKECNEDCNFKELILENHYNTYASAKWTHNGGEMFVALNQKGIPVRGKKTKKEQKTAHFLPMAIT
The experiment in a line: competition; PC-3 cells; 10.6 nM partial on NIH3T3/FGFR-2. Particulars: tags: Upstate Biotechnology. As for the experimental part: (§1) PC-3 cells were plated in 24-well plates at about 10⁵ cells per well. Following growth for […], the cells were serum starved for 24 hours, washed two times with 500 μl of cold DPBS, and then incubated with 500 μl binding buffer (BB1; DPBS, 0.5 mM MgCl₂, 0.2% BSA. 0.02% sodium azide) containing various concentrations of ¹²⁵I-labeled KGF ranging from 0 to 0.8 nM. Following 3-3.5 hour incubation at 4° C., the binding mixes were aspirated and the well-adhered cells were washed two times with 1 ml BB1 and once with 1 ml BB1 supplemented with 0.5M NaCl. The remaining bound labeled hKGF was solubilized in 600 μl 0.5% SDS/0.1M NaOH and counted in a gamma counter (Beckmann). Nonspecific binding was determined in the presence of 100 fold molar excess of unlabeled hKGF. For competition assays, the labeled hKGF was kept constant at […], and varying concentrations of competitor molecules were included in the binding reactions ranging from 0-1,000 nM. Binding curves were fitted to the equation: […]
(§2) A subset of these ligands was tested on the NIH3T3/FGFR-2. In determining the Ki values, it was assumed that 3T3 cells have 500,000 binding sites per cell and PC-3 cells have 5,000 binding sites per cell.

Data set [2] addresses T1, KGF (hKGF). The experiment in a line: competition; PC-3 cells. As to conditions: tags: Upstate Biotechnology. As for the experimental part:
as §1, §2

The target in data set [3] is T1, KGF (hKGF). In words: filter; DPBS, 37 C; PC-3 Ki […] nM. Particulars: tags: Upstate Biotechnology; label: 32P.
Data set [4] concerns the target T2, TGFβ1 (Homo sapiens, UniProt P01137 P01137:279-390). In words: filter; boundary experiment. Particulars: tags: Genentech or R&D Systems; chain copies: 2.
The target in another data set is PDGF-BB (Homo sapiens, UniProt P01127 P01127:82-190). In words: competition; PDGF alpha-receptor PAE cells, 4 C; mitogenic half-maximal 2.5 nM. Particulars: tags: R&D Systems, E. coli; chain copies: B chain dimer; three-way helix junction.
Data set [5] concerns the target T2, TGFβ1. In words: cell_activity; also 108 and 69 nM; stimulates at low concentration.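 Note: inhibition of TGFβ1-induced luciferase reporter expression in mink lung epithelial cells.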 Particulars: tags: Genentech or R&D Systems; chain copies: 2. The method, then: (§3) Mink lung epithelial cells (MLEC) carrying the Pail/luc construct were maintained in DME containing 10% fetal bovine serum and 400 μg/ml G418. MLEC-Pail/luc cells were plated at 3.2×10⁴ cells per well in a 96 well Falcon plate, in 100 μl of DME+10% fetal bovine serum overnight. Media was made from autoclaved water. The cells were washed three times ([…]) in serum free DME plus Solution A (1:1). Solution A is 30 mM Hepes pH 7.6, 10 mM glucose, 3.0 mM KCl, 131 mM NaCl, 1.0 mM disodium phosphate. Samples (100 μl) were added in DME containing 20 mM Hepes pH 7.5, and 0.1% BSA (Fluka, radioimmunoassay grade). All samples were in triplicate. After six hours at 37° C. in a 5% CO₂ incubator the media was removed and cells were washed three times (100 μl each) in cold PBS. Lysis buffer (75 μl) (Analytical Luminescence Laboratory) was added and the plates incubated on ice for 20 min. The plates were sealed and frozen at −80° C. until assayed. Samples (25 μl) were assayed for luciferase activity with the Enhanced Luciferase Assay Kit from Analytical Luminescence Laboratory (San Diego, Calif., USA) according to the manufacturer's instructions using the Berthold Microlumat LB96P luminometer.
(§4) Ligands tested for inhibition of TGFβ1 activity were tested at a minimum of five concentrations. […]

The target of data set [6] is T2, TGFβ1. The experiment in a line: filter; second determination 0.2 nM; cell IC50 69-109 nM. As to conditions: tags: Genentech; biotinylated version used in bead assay; chain copies: 2.
Data set [7] has as its target T2, TGFβ1. The experiment in a line: cell_activity; second value 157 nM.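 Note: inhibition of TGFβ1-induced luciferase reporter expression in mink lung epithelial cells.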 Particulars: tags: Genentech or R&D Systems; chain copies: 2. The method, then: as §3, §4
The target of data set [8] is T2, TGFβ1. In words: filter; 37 C; cell IC50 20 and 157 nM. As to conditions: tags: Genentech; biotinylated version used in bead assay; chain copies: 2.
In data set [9] the target is T2, TGFβ1. The experiment in a line: cell_activity; second value 112 nM.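 Note: inhibition of TGFβ1-induced luciferase reporter expression in mink lung epithelial cells.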 Particulars: tags: Genentech or R&D Systems; chain copies: 2. As for the experimental part:
as §3, §4

Data set [10] has as its target T3, KGF (rat) (Rattus norvegicus, UniProt Q02195 Q02195:32-194).
T3 sequence: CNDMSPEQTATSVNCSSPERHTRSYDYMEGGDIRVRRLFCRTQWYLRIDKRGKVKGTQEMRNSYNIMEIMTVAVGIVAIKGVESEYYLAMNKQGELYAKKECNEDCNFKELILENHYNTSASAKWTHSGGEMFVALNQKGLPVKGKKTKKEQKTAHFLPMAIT
The experiment in a line: cell_activity; Balb/MK DNA synthesis. Particulars: tags: QED Advanced Research Technologies; pseudoknot.
Method: (§5) Balb/MK cells grown in Low Ca⁺⁺ EMEM with 10% FCS (dialyzed and heat inactivated) and 5 ng/ml rhEGF were trypsinized and resuspended in Low Ca⁺⁺ EMEM with 1% FCS (dialyzed and heat inactivated) and 0.5 ng/ml rhEGF and plated on 96 well fibronectin coated culture plates at 4-6×10⁴ cells per well in 100 μl total volume. Following overnight growth, the medium was replaced with Low Ca⁺⁺ EMEM without FCS or rhEGF and serum starved for about 30 hrs. […] Following over-night incubation, ³H-thymidine was added at 0.2 μCi/well and incubation continued for an additional 7-8 hrs. The extent of ³H-thymidine incorporation was determined by TCA precipitation and filtration through GFC filter disks.

Data set [11] concerns the target T1, KGF (hKGF). The experiment in a line: cell_activity; Balb/MK mitogenic assay. Particulars: tags: Upstate Biotechnology; pseudoknot.
Method: as §5
Data set [12] addresses T3, KGF (rat). The experiment in a line: filter; high affinity component; Kd2 70.0 nM. As to conditions: tags: QED Advanced Research Technologies; label: 32P; pseudoknot (predicted).
Data set [13] addresses T2, TGFβ1. The experiment in a line: filter; specificity control; random RNA 10.4 nM. Particulars: tags: Genentech; biotinylated version used in bead assay; chain copies: 2; label: 32P; pseudoknot (predicted).
The target of another data set is EGF (Homo sapiens, UniProt P01133 P01133:971-1023). In words: filter; specificity control; random RNA 2000 nM. As to conditions: tags: Upstate Biotechnology; label: 32P; pseudoknot (predicted).
The target in another data set is PDGF-AB (Homo sapiens, UniProt P04085;P01127 P04085:87-211,P01127:82-190). The experiment in a line: filter; specificity control; random RNA 22.0 nM. Particulars: tags: R&D Systems, E. coli; label: 32P; pseudoknot (predicted).
Another data set addresses bFGF (Homo sapiens, UniProt P09038 P09038:143-288). In words: filter; specificity control; random RNA 0.0375 and 10.3 nM. As to conditions: tags: R&D Systems; label: 32P; pseudoknot (predicted).
The target of data set [14] is T1, KGF (hKGF). The experiment in a line: filter; equimolar halves; high -, low -. Particulars: tags: Upstate Biotechnology. As for the experimental part:
In an effort to identify shorter KGF ligands that retained binding, the binding activity of various deletions of the shortest truncate of ligand 14F, namely 14F3′T were tested. Deletions were tested in all the structural elements of the proposed pseudoknot structure. RNA transcripts containing 2′F pyrimidines and 2′OH purines were obtained by in vitro transcription using synthetic DNA templates. The activity of each ligand is shown by scoring for both the high (H) and low (L) affinity component of the 14F3′T binding curve with +(active) or −(not active). Truncates T35 and T36 represent two complementary halves of 14F3′T molecule and were additionally tested as an equimolar mixture. The structural elements of the proposed pseudoknot structure are separated by (1) and are indicated by symbols S1 (stem 1), S2 (stem 2), L1 (loop 1) and L3 (loop 3). The proposed pseudoknot structure for 14F3′T is a non-H-type pseudoknot and lacks L2 (loop 2). The complementary sequences forming S1 (S1 and S1′) and S2 (S2 and S2′) are marked by single and double underlines respectfully. In the tabulated sequences, deleted bases were replaced with periods (.). […] Deletions in loop 3 (L3), however, were tolerated as long as one copy of the RRYY box remained intact. The shortest ligand that retained activity is T22 which is a 43-mer. […]

Data set [15] has as its target T1, KGF (hKGF). The experiment in a line: competition; PC-3 cells; 6.8 nM on NIH3T3/FGFR-2; 830 pM Balb/MK. Particulars: tags: Upstate Biotechnology; pseudoknot. The method, then: as §1, §2
For data set [16], the target named is T1, KGF (hKGF). The experiment in a line: filter; biphasic, high affinity 37%; Kd2 3.25 nM; PC-3 Ki 0.16 nM. As to conditions: tags: Upstate Biotechnology; label: 32P; pseudoknot (predicted).
Data set [17] deals with T2, TGFβ1. The experiment in a line: cell_activity; PAI-luciferase MLEC, n=4.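 Note: inhibition of TGFβ1-induced luciferase reporter expression in mink lung epithelial cells.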 As to conditions: tags: Genentech or R&D Systems; chain copies: 2. The method, then: as §3, §4
The target of data set [18] is T1, KGF (hKGF). The experiment in a line: competition; PC-3 cells; 2.7 nM on NIH3T3/FGFR-2; 92 pM Balb/MK. Particulars: tags: Upstate Biotechnology; pseudoknot. As for the experimental part: as §1, §2
The target in data set [19] is T1, KGF (hKGF). The experiment in a line: filter; biphasic, high affinity 25-44%; text p221 gives 0.3-3 pM and 2-10 nM; PC-3 Ki 0.2 nM. As to conditions: tags: Upstate Biotechnology; label: 32P; pseudoknot (predicted).

T2 sequence (P01137 279-390, one chain of several): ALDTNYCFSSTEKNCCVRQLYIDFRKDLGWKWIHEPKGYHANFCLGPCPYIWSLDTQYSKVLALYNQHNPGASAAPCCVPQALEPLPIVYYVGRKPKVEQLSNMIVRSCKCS
bFGF, sequence (P09038 143-288, one chain of several): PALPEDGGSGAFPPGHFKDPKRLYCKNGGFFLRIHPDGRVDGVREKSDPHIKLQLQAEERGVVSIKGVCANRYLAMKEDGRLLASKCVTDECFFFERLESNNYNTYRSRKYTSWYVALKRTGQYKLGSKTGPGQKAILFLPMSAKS
EGF, sequence (P01133 971-1023, one chain of several): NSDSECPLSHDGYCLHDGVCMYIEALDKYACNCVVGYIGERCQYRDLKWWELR
PDGF-AB, sequence (P01127 82-190, chain 2 of 2, other chains not shown): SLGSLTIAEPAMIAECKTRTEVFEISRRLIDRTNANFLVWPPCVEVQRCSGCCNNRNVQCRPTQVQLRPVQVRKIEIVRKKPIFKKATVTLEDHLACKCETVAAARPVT
PDGF-BB, sequence (P01127 82-190, one chain of several): as the sequence (P01127 82-190, chain 2 of 2, other chains not shown) above

B1: 14N (ssRNA)
RNA: GGGAGGACGAUGCGGUCCAGGGAUUGAAGUGUCGGGGUAGGAACAUAAAGGCGGCCAGACGACUCGCCCGA
modifications: 2'-NH2 pyrimidines
On to B1, for which, in the data set with KGF (hKGF) [1], the Ki (as a rule, a dissociation constant, usually derived from enzyme kinetics or from competition with a known ligand) was determined as 1.4 nM. In addition, the IC50 (in general, the concentration at which inhibition is half-maximal) with KGF (hKGF) [2] was found to be 6 nM. Besides, binding with KGF (hKGF) [3] was put at a Kd of 0.44 nM.

B2: lib8-9 boundaries (ssRNA)
RNA: CUUCCGAGUAGACAGGAGGGAGGGGUGGAUGUGGCGUCUACUC
On to B2, for which the binding result in the data set with TGFβ1 [4] is listed as “binds”.

B3: 36t (ssDNA)
DNA: CACAGGCTACGGCACGTAGAGCATCACCATGATCCTGTGT
modifications: 3'-3' idT
In the case of B3, the IC50 with PDGF-BB is approximately 1 nM.

B4: lib4-12 (ssRNA)
RNA: GGGGGAGAACGCGGAUCCUGAGAAGGACGUCGGGGUCAACGGGGUGAGGUGCAGCAGAAAGGGCCGGCACCACAUGACGUAAAAGCUUCGCUCUAGAUCUCCCUUUAGUGAGGGUUA
modifications: 2'-NH2 pyrimidines
Turning to B4, the IC50 with TGFβ1 [5] was found to be 109 nM. For the same molecule, the Kd (as a rule, the constant that tells how readily two partners part at equilibrium) in the data set with TGFβ1 [6] came out at 0.4 nM.

B5: lib4-32 (ssRNA)
RNA: GGGGGAGAACGCGGAUCCGGCAACCCCAGGCGCAUAGCUUCCGAGUAGACAGGCGGGAGGGGUGGAUGUGGCGUCACGAGGAAGCUUCGCUCUAGAUCUCCCUUUAGUGAGGGUUA
modifications: 2'-NH2 pyrimidines
As to B5, the midpoint of inhibition with TGFβ1 [7], the IC50, lay at 20 nM. Further, in the data set with TGFβ1 [8], binding was put at a Kd of 0.8 nM.

B6: lib2-6-1 (ssRNA)
RNA: GGGGGAGAACGCGGAUCCUGUCUCCACCGCCGAUACUGGGGUUCCUGGGGCCCCUCCAUGCAGGAGGGGGGUGGUUCGGAGAAAGCUUCGCUCUAGAUCUCCCUUUAGUGAGGGUUA
modifications: 2'-NH2-U, 2'-F-C
In the case of B6, it took 103 nM to reach half-maximal inhibition in the data set with TGFβ1 [9] (IC50).

B7: 14F3'T (ssRNA)
RNA: GGGAGGACGAUGCGGUGGUCUCCCAAUUCUAAACUUUCUCCAUCGUAUC
modifications: 2'-F pyrimidines
With B7, the values for the Ki in the data set with KGF (rat) [10] and with KGF (hKGF) [11] were 1.8 nM and 0.034 nM, respectively. For the same molecule, the dissociation constant (Kd) is 0.0041 nM with KGF (rat) [12]; 98 nM with TGFβ1 [13]; 256 nM in the data set with EGF; 50 nM with PDGF-AB; 10 nM with bFGF.

B8: T35/T36 equimolar (ssRNA)
RNA 1: GGUGGUCUCCCAAUUCUAUUCUCCAUCGUAUC
RNA 2: GGGAGGACGAUG
modifications: 2'-F pyrimidines
Take B8: the binding result with KGF (hKGF) [14] is “no binding”.

B9: 6F (ssRNA)
RNA: GGGAGGACGAUGCGGGAUCCUUUGUGGGCUCUUGUUGACCCCCUCGUUGUCCCCCCCAGACGACUCGCCCGA
modifications: 2'-F pyrimidines
Consider B9, for which the affinity with KGF (hKGF) [15], expressed as Ki, was 0.16 nM. In the data set with KGF (hKGF) [2] (pseudoknot), this molecule registered an IC50 of 4 nM. Also, the dissociation constant Kd in the data set with KGF (hKGF) [16] was 0.05 nM.

B10: lib3-13 (ssRNA)
RNA: GGGGGAGAACGCGGAUCCGAGCAAUCCCAGGCGCAUAGCUUCCGAGUAGACAGGAGGGAGGGGUGGAUGUGGCGUCUACUCGGUGUCGUGAAGCUUCGCUCUAGAUCUCCCUUUAGUGAGGGUUA
modifications: 2'-NH2 pyrimidines
B10: the IC50 with TGFβ1 [17] was found to be 25 nM.

B11: 14F (ssRNA)
RNA: GGGAGGACGAUGCGGUGGUCUCCCAAUUCUAAACUUUCUCCAUCGUAUCUGGGCCAGACGACUCGCCCGA
modifications: 2'-F pyrimidines
For B11, affinity with KGF (hKGF) [18] was put at a Ki of 0.2 nM. In addition, in the data set with KGF (hKGF) [2] (pseudoknot), the half-maximal inhibitory concentration (IC50) was 10 nM. The Kd with KGF (hKGF) [19] was 0.0134 nM.

These data come from patent publication US20030180744, “High affinity oligonucleotide ligands to growth factors” (GILEAD SCIENCES, INC., published 2003).
